Results on 29 sequences are retold here after the Immune Epitope Database (IEDB).

One assay has as its target HLA-B*18:01. The assay can be described thus: IEDB peptide-MHC binding, purified MHC/competitive/radioactivity; filed as Kd, often an IC50 or EC50 that approximates it; ≥ and ≤ were set here for values at or beyond the usual limits of such assays.
Assay [1] concerns the target HLA-B*40:01. Described as above.
A further assay addresses HLA-B*40:02. The assay is described as above.
In assay [2] the target is HLA-B*44:02. The assay is described as above.
In the next assay the target is HLA-B*44:03. Described as above.
Another assay has as its target HLA-B*45:01. Described as above.
The target in assay [3] is HLA-B*07:02. Described as above.
Another assay concerns the target HLA-A*01:01. Put plainly: IEDB peptide-MHC binding, purified MHC/direct/fluorescence; filed as Kd, often an IC50 or EC50 that approximates it; ≥ and ≤ were set here for values at or beyond the usual limits of such assays.
For assay [4], the target named is HLA-A*02:01. Described as above.
Assay [5] deals with HLA-A*03:01. Described as above.
The target of assay [6] is HLA-A*11:01. Described as above.
In assay [7] the target is HLA-A*26:01. The assay is described as above.
The target in another assay is HLA-A*31:01. The assay is described as above.
Another assay concerns the target HLA-A*69:01. Described as above.
For assay [8], the target named is HLA-B*07:02. The assay is described as above.
The target of a further assay is HLA-B*08:01. The description is as above.
For assay [9], the target named is HLA-B*15:01. Described as above.
A further assay concerns the target HLA-B*27:05. The assay is described as above.
Assay [10] addresses HLA-B*40:01. Described as above.
A further assay has as its target HLA-B*58:01. The description is as above.
The target of another assay is HLA-B*39:01. The assay can be described thus: IEDB peptide-MHC binding, purified MHC/competitive/fluorescence; filed as Kd, often an IC50 or EC50 that approximates it; ≥ and ≤ were set here for values at or beyond the usual limits of such assays. The following applies: source organism: Pseudomonas aeruginosa PAO1.
The target in assay [11] is HLA-B*44:02. Put plainly: IEDB peptide-MHC binding, purified MHC/direct/fluorescence; filed as Kd, often an IC50 or EC50 that approximates it; ≥ and ≤ were set here for values at or beyond the usual limits of such assays.
The next assay deals with HLA-B*46:01. Put plainly: IEDB peptide-MHC binding, purified MHC/competitive/fluorescence; filed as Kd, often an IC50 or EC50 that approximates it; ≥ and ≤ were set here for values at or beyond the usual limits of such assays. The following applies: source organism: Giardia lamblia ATCC 50803.
For a further assay, the target named is HLA-B*51:01. Put plainly: IEDB peptide-MHC binding, purified MHC/competitive/radioactivity; filed as Kd, often an IC50 or EC50 that approximates it; ≥ and ≤ were set here for values at or beyond the usual limits of such assays.
A further assay addresses HLA-B*35:01. Described as above.
Assay [12] addresses HLA-A*03:01. The assay can be described thus: IEDB peptide-MHC binding, purified MHC/competitive/fluorescence; filed as Kd, often an IC50 or EC50 that approximates it; ≥ and ≤ were set here for values at or beyond the usual limits of such assays.
For assay [13], the target named is HLA-A*26:01. Described as above. The following applies: source organism: Yersinia bercovieri ATCC 43970.
The target of assay [14] is HLA-B*15:01. The description is as above. The following applies: source organism: Yersinia bercovieri ATCC 43970.
Assay [15] addresses HLA-A*11:01. The assay can be described thus: IEDB peptide-MHC binding, purified MHC/competitive/fluorescence; ≥ and ≤ were set here for values at or beyond the usual limits of such assays.
The next assay addresses HLA-B*53:01. Put plainly: IEDB peptide-MHC binding, purified MHC/competitive/radioactivity; filed as Kd, often an IC50 or EC50 that approximates it; ≥ and ≤ were set here for values at or beyond the usual limits of such assays. The following applies: source organism: Dengue virus 1 Brazil/97-11/1997.
Assay [16] has as its target HLA-A*02:01. Put plainly: IEDB peptide-MHC binding, purified MHC/competitive/fluorescence; ≥ and ≤ were set here for values at or beyond the usual limits of such assays. The following applies: source organism: Zaire ebolavirus.
The next assay deals with HLA-A*24:02. The assay is described as above. The following applies: source organism: Zaire ebolavirus.
The mark [17] stands for this setting: source organism: Mammarenavirus guanaritoense.
Setting [18] is: source organism: SARS coronavirus Tor2.
Setting [19] is: source organism: Dengue virus 2 Jamaica/1409/1983.
Setting [20] is: source organism: Pseudomonas aeruginosa.
Setting [21] is: source organism: Dengue virus 3 Martinique/1243/1999.
Setting [22] is: source organism: Giardia lamblia ATCC 50803.
Setting [23] is: source organism: Salmonella enterica.
[24] abbreviates: source organism: Dengue virus 1 Brazil/97-11/1997.
The mark [25] stands for this setting: source organism: Zaire ebolavirus.

On to AEAYCTGML, for which the Kd (in general, the constant that tells how readily two partners part at equilibrium) with HLA-B*18:01 (setting [17]) is at least 77.5 µM; with HLA-B*40:01 [1] (setting [17]), 0.116 µM; with HLA-B*40:02 (setting [17]), 0.111 µM; with HLA-B*44:02 [2] (setting [17]), 0.182 µM; with HLA-B*44:03 (setting [17]), 0.343 µM; with HLA-B*45:01 (setting [17]), 1.38 µM.

On to QEAYEQAVA, for which the Kd with HLA-B*18:01 (setting [18]) is 3.87 µM; in the assay with HLA-B*40:01 [1] (setting [18]), at least 26 µM; with HLA-B*40:02 (setting [18]), 1.2 µM; with HLA-B*44:02 [2] (setting [18]), 17.3 µM; with HLA-B*44:03 (setting [18]), 6.86 µM; with HLA-B*45:01 (setting [18]), 0.0149 µM.

As for SPSKLASAIQ, the Kd with HLA-B*07:02 [3] (setting [19]) amounted to 0.436 µM.

Take EDFLLMYEM: the Kd came to 0.0921 µM in the assay with HLA-B*18:01 (setting [17]); 16.9 µM with HLA-B*40:01 [1] (setting [17]); 0.00567 µM with HLA-B*40:02 (setting [17]); 0.582 µM with HLA-B*44:02 [2] (setting [17]); 2.55 µM with HLA-B*44:03 (setting [17]); 4.64 µM with HLA-B*45:01 (setting [17]).

As to SEYKAAGYL, the Kd with HLA-A*01:01 (setting [20]), with HLA-A*02:01 [4] (setting [20]), with HLA-A*03:01 [5] (setting [20]), with HLA-A*11:01 [6] (setting [20]), in the assay with HLA-A*26:01 [7] (setting [20]) and with HLA-A*31:01 (setting [20]) was at least 20 µM each time. The Kd in the assay with HLA-A*69:01 (setting [20]) is at least 20 µM; in the assay with HLA-B*07:02 [8] (setting [20]) it was at least 20 µM; with HLA-B*08:01 (setting [20]), at least 20 µM; with HLA-B*15:01 [9] (setting [20]) it was at least 20 µM; with HLA-B*27:05 (setting [20]), at least 20 µM; in the assay with HLA-B*40:01 [10] (setting [20]) it was 0.0196 µM. The Kd with HLA-B*58:01 (setting [20]) and with HLA-B*39:01 was at least 20 µM each time.

YENAFLPFT: the equilibrium dissociation constant (Kd) was found to be 0.112 µM with HLA-B*18:01 (setting [18]); 6.12 µM with HLA-B*40:01 [1] (setting [18]); 0.0364 µM with HLA-B*40:02 (setting [18]); 1.65 µM with HLA-B*44:02 [2] (setting [18]); 0.857 µM in the assay with HLA-B*44:03 (setting [18]); 0.0936 µM with HLA-B*45:01 (setting [18]).

In the case of TPRSMPGTRR, the equilibrium dissociation constant (Kd) with HLA-B*07:02 [3] (setting [21]) came out at 1.14 µM.

For the sequence TPTWNRKELL, the Kd with HLA-B*07:02 [3] (setting [21]) stood at 0.0182 µM.

In the case of AAFLDDNAF, the Kd with HLA-A*01:01 (setting [22]), with HLA-A*03:01 [5] (setting [22]), with HLA-A*11:01 [6] (setting [22]), in the assay with HLA-A*26:01 [7] (setting [22]), with HLA-A*31:01 (setting [22]) and in the assay with HLA-A*69:01 (setting [22]) was at least 20 µM each time. The Kd was at least 20 µM with HLA-B*07:02 [8] (setting [22]); at least 20 µM with HLA-B*08:01 (setting [22]); 0.106 µM with HLA-B*15:01 [9] (setting [22]); at least 20 µM with HLA-B*27:05 (setting [22]); at least 20 µM with HLA-B*40:01 [10] (setting [22]); at least 20 µM with HLA-B*44:02 [11] (setting [22]). In addition, the results for the Kd with HLA-B*58:01 (setting [22]) and in the assay with HLA-B*46:01 were at least 20 µM and 0.118 µM, respectively.

As for EEQTDPKTL, the Kd with HLA-A*01:01 (setting [23]), in the assay with HLA-A*02:01 [4] (setting [23]), in the assay with HLA-A*03:01 [5] (setting [23]), in the assay with HLA-A*11:01 [6] (setting [23]), with HLA-A*26:01 [7] (setting [23]) and with HLA-A*31:01 (setting [23]) was at least 20 µM throughout. Also, the Kd was at least 20 µM with HLA-A*69:01 (setting [23]); at least 20 µM with HLA-B*07:02 [8] (setting [23]); at least 20 µM with HLA-B*08:01 (setting [23]); at least 20 µM with HLA-B*15:01 [9] (setting [23]); at least 20 µM with HLA-B*27:05 (setting [23]); 7.33 µM in the assay with HLA-B*40:01 [10] (setting [23]). The Kd with HLA-B*44:02 [11] (setting [23]) and with HLA-B*58:01 (setting [23]) was at least 20 µM each time.

Take FSRENSLSGV: in the assay with HLA-B*51:01 (setting [24]), the Kd amounted to 7.58 µM.

As to LILCVTQVLM, in the assay with HLA-B*35:01 (setting [19]), the Kd was found to be 14.2 µM.

On to TPSMTMRCVG, for which the Kd in the assay with HLA-B*07:02 [3] (setting [21]) came to 0.048 µM.

Consider YIYDTAFKY, for which the Kd with HLA-A*03:01 [12] (source organism: Yersinia bercovieri ATCC 43970) worked out at 3.83 µM; with HLA-A*26:01 [13], 0.265 µM; with HLA-B*15:01 [14], 0.173 µM.

As for KPEGKVIDL, the Kd with HLA-B*07:02 [3] (setting [24]) stood at 0.496 µM.

For AEFWDVFLS, the Kd in the assay with HLA-A*01:01 (setting [22]), in the assay with HLA-A*02:01 [4] (setting [22]), with HLA-A*03:01 [5] (setting [22]), with HLA-A*11:01 [6] (setting [22]), with HLA-A*26:01 [7] (setting [22]) and with HLA-A*31:01 (setting [22]) was at least 20 µM each time. Further, the Kd in the assay with HLA-A*69:01 (setting [22]) is at least 20 µM; with HLA-B*07:02 [8] (setting [22]) it was at least 20 µM; with HLA-B*08:01 (setting [22]) it was at least 20 µM; in the assay with HLA-B*15:01 [9] (setting [22]) it was at least 20 µM; with HLA-B*27:05 (setting [22]), at least 20 µM; in the assay with HLA-B*40:01 [10] (setting [22]), 0.0499 µM. In addition, the Kd with HLA-B*44:02 [11] (setting [22]) and in the assay with HLA-B*58:01 (setting [22]) was at least 20 µM throughout.

Sequence CIYRRFKYGLK had a Kd with HLA-A*03:01 [12] (source organism: Influenza A virus (A/Puerto Rico/8/1934(H1N1))) of 0.0056 µM.

On to LALGCYSQV, for which the Kd in the assay with HLA-B*51:01 (setting [24]) amounted to 0.567 µM.

On to KACLEKVQR, for which, in the assay with HLA-A*11:01 [15] (setting [25]), the IC50 (in general, the point on the concentration scale where inhibition reaches its midpoint) is at least 188 µM.

Take RVLSLIGLK: the IC50 with HLA-A*11:01 [15] (source organism: West Nile virus) came to 0.334 µM.

In the case of LPDTIETLML, the figures for the Kd in the assay with HLA-B*35:01 (setting [24]), in the assay with HLA-B*51:01 (setting [24]) and with HLA-B*53:01 were 0.578 µM, 19.3 µM and 0.297 µM, respectively.

Turning to MGLDKGWPI, the Kd in the assay with HLA-B*51:01 (setting [24]) was at least 44.7 µM.

On to FPLCLSTTSQ, for which the Kd with HLA-B*07:02 [3] (setting [24]) was 0.179 µM; with HLA-B*35:01 (setting [24]), 0.514 µM; with HLA-B*51:01 (setting [24]), at least 39.6 µM; with HLA-B*53:01, 0.0363 µM.

For LPVWLAYKVA, the Kd in the assay with HLA-B*35:01 (source organism: Dengue virus 2 Peru/IQT2913/1996) amounted to 5.09 µM.

On to SPSPTVEESR, for which the Kd with HLA-B*07:02 [3] (setting [21]) is 3.71 µM.

Turning to EESASSGKL, the IC50 with HLA-A*11:01 [15] (setting [25]) was at least 214 µM.

Consider KDESIFINK, for which the IC50 with HLA-A*11:01 [15] (source organism: Vaccinia virus Copenhagen) is at least 82.6 µM.

Consider MGVTGILQL, for which the IC50 is 52.9 µM with HLA-A*02:01 [16], at least 73.8 µM in the assay with HLA-A*11:01 [15] (setting [25]) and at least 85.2 µM with HLA-A*24:02.

Take IALDLVTEI: the Kd with HLA-B*51:01 (setting [21]) was found to be 0.00152 µM.
